Patent US20070141665A1

Biological target: Cavβ3-I-II2.1 chimera (rat β3 subunit fused at its C-terminal end to the I-II loop of the rabbit Cavα2.1 subunit), [35S]-labelled (rat; rabbit) (UniProt P54287)
Assay: Gβγ (10 to 900 nM) displaces the intramolecular Cavβ-AID2.1 binding of [35S] Cavβ3-I-II2.1; read as binding of the chimera to GST-AID1.2 after 30 min at 30 °C, SDS-PAGE and autoradiography

Chain of UniProt P54287 (P54287 other isoform, or with tags, fused parts or gaps mutant): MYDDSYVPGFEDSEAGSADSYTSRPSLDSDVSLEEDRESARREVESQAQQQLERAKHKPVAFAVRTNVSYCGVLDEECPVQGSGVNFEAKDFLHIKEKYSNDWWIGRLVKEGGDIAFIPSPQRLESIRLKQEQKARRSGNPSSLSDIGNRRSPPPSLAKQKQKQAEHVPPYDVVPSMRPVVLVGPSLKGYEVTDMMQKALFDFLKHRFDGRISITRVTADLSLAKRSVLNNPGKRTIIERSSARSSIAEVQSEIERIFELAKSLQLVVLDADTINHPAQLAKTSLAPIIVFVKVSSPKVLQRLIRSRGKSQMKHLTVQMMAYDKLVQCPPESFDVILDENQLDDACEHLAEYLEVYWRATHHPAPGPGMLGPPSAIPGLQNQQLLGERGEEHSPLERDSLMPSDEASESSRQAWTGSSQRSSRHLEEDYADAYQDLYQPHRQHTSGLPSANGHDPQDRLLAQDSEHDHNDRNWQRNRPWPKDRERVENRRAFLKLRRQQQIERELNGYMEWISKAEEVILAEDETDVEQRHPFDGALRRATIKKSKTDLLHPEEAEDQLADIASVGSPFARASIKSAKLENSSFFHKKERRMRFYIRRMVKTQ

IC50: 160 nM
Substance: G-protein Gβγ complex (Calbiochem)
